Results as given in patent publication US20120107267A1 (Novo Nordisk, published 2012).

Target: T1, His6-tagged hIL-21Rα extracellular domain (human, UniProt Q9HBE5 20-232)
T1 construct: extracellular domain; also called His6-tagged receptor EC domain; hIL-21Rα chain; not shown: His6 tag
Assay: ALPHAScreen competition against biotinylated hIL-21 HA

T1 sequence (Q9HBE5 20-232): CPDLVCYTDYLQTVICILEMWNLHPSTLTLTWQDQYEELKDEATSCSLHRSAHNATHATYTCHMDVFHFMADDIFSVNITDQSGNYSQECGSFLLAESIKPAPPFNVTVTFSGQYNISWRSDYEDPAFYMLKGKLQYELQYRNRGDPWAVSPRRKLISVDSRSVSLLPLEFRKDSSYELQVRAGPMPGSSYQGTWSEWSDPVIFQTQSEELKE

B1: hIL-21 HA triple mutant [Q116D, H120D, L123D] (ligand)
chain: QGQDRHMIRMRQLIDIVDQLKNYVNDLVPEFLPAPEDVETNCEWSAFSCFQKAQLKSANTGNNERIINVSIKKLKRKPPSTNAGRRQKHRLTCPSCDSYEKKPPKEFLERFKSLLDKMIDQHDSSRTHGSEDSYPYDVPDYA
notes: Made by site-directed mutagenesis of the pcDNA3.1(+)/hIL-21HA plasmid and expressed in HEK293 cells
B1: binds.
